The text below walks through data of publication PMC6651182, “Importance of the Choice of a Recombinant System to Produce Large Amounts of Functional Membrane Protein hERG” (International Journal of Molecular Sciences, 2019).

For one data set, the target named is hERG-wt (Homo sapiens, UniProt Q12809). The data set is described as follows: Two-electrode voltage clamp in Xenopus oocytes, inhibition of hERG-wt tail current. The settings on record: mean ± SEM, n = 7.
Data set [1] addresses T1, hERG(S1-coil) (Homo sapiens, UniProt Q12809, N598Q).
T1 construct: hERG(362-675) + coiled-coil
Description: Electrophysiology on planar lipid bilayers with purified hERG(S1-coil) (stable HEK, DDM). It is filed as biochemical. The settings on record: samples pre-incubated with 10 µM toxin; lipid bilayer; data not shown. As to the method: Crude membranes prepared from P. pastoris, Sf9 or stable HEK cells expressing hERG(S1-coil) were solubilized in 50 mM HEPES, pH 7.5, 300 mM KCl containing 1% DPC or DDM and 0.2% cholesteryl-hemisuccinate (CHS, Sigma Aldrich) at slow rotation at +4 °C for 1 h. Samples were centrifuged at 25,000 g for 15 min at +4 °C. […] After transferring to a column and washing the resin with 15 CV of 50 mM HEPES, pH 7.5, 300 mM KCl, 50 mM imidazole, 0.1% (w/v) DPC and 0.02% (w/v) CHS, hERG(S1-coil) was eluted with 250 mM imidazole in the same buffer. For purification of hERG(S1-coil) overexpressed in Sf9 cells in DPC, the supernatant was diluted 2-fold in 50 mM HEPES, pH 7.5 and transferred to a Strep-Tactin column (Strep-TactinSuperflow, IBA, Göttingen, Germany) at a ratio of 1 mL resin for 100 mL supernatant. […] Purified samples were analysed by SDS-PAGE and Western blot and protein concentrations determined by BCA assay.
Planar lipid bilayers were formed at room temperature by painting a solution of azolectin (Type IVS, Sigma Aldrich) at 45 mg/mL in decane across a 200 µm aperture in a polysulfonate cup (Warner Instruments, Hamden, CT, USA) separating two chambers. […] A total of 500 ng of chimeric hERG protein was added in the cis chamber and the resulting channel activity recorded for at least 2 min. […]
In general terms: The hERG channel carries a current that helps repolarise heart muscle cells.

Data set [2] concerns the target hERG(S1-coil) (Homo sapiens, UniProt Q12809). Description: Two-electrode voltage clamp in Xenopus oocytes, inhibition of hERG(S1-coil) tail current. The settings on record: mean ± SEM, n = 8. In general terms: In two-electrode clamp one electrode senses voltage and the other passes current.
Description: (§1) (A). Current-voltage relationship for hERG-wt and hERG(S1-coil). Currents measured at the end of a 4 seconds long depolarizing pulse (from −70 to 30 mV) were normalized to the maximal current for hERG-wt (n = 21) and hERG(S1-coil) (n = 19). (B). Steady-state voltage-dependence of activation. […] (C).
(§2) Stage V–VI oocytes were removed from female Xenopus under tricaine anaesthesia. […] After intensive washing with OR2 solution, oocytes were injected with RNA preparation (about 30 nL per oocyte) and recorded 2–5 days after injection. Currents were recorded at room temperature using the two-electrode voltage clamp method. Electrodes were pulled from borosilicate glass and filled with 3 M KCl. Currents were measured by a Geneclamp 500 amplifier (Molecular Devices, San Jose, CA, USA) and digitized by a Digidata 1200 converter (Molecular Devices) using Clampex 5 software (Molecular Devices). […] We determined the concentration to obtain the half maximal inhibition (IC50) by measuring the peak tail current recorded during the second pulse at −50 mV in the presence of increasing concentrations of inhibitor and normalized the value to the current measured in the absence of inhibitor. […] The significance of the difference between two results was determined using the unpaired Student’s test set at the 0.01 level.

What is called IC50 is the concentration that gives 50% inhibition. A high value points to a need for much substance.

Description for hERG-wt: as §1, §2

As for “BeKm-1 (RPTDIKCSESYQCFPVCKSRFGKTNGRCVNGFCDCF; UniProt Q9BKB7 22-57, looked up)”, the 50% inhibitory concentration (IC50) with hERG-wt was determined as 21.7 ± 2.76 nM; with hERG(S1-coil) [2], 24.9 ± 3.77 nM. Besides, in the data set with hERG(S1-coil) [1], the “current at −100 mV” value was “did not have any current”.
